Results published in paper PMC5308896, “A conformational switch regulates the ubiquitin ligase HUWE1” (eLife, 2017).

Experiments:
[1] = biological target: HUWE1 (3951–4374), crystallization construct with the N-terminal expression tag (human) (UniProt Q7Z6Z7); test: SEC-MALS; proteins injected at high concentration (~350 to 400 μM; highest point of Figure 3A, Figures 4A, 4F, 4G, Table 2); Superdex 200 10/300 GL, room temperature, 20 mM HEPES pH 8.0, 250 mM NaCl, 1 mM EDTA, 5 mM DTT
[2] = biological target: HUWE1 (3951–4374), untagged (human) (UniProt Q7Z6Z7); test: AUC; sedimentation equilibrium, dimer to monomers (monomer-dimer self-association model, Sedphat); 10 µM protein, 4°C, 10 mM HEPES pH 8.0, 200 mM NaCl, 1 mM EDTA, 1 mM β-mercaptoethanol; 9000, 13,000 and 17,000 rpm
[3] = biological target: the molecule itself; test: SEC-MALS; proteins injected at high concentration (~350 to 400 μM; highest point of Figure 3A, Figures 4A, 4F, 4G, Table 2); Superdex 200 10/300 GL, room temperature, 20 mM HEPES pH 8.0, 250 mM NaCl, 1 mM EDTA, 5 mM DTT
[4] = biological target: T1, HUWE1 (3951–4374), untagged (human, UniProt Q7Z6Z7 3951-4374); test: SEC; MBP-tagged activation segment (or MBP) and HUWE1 constructs, each alone at 120 μM and as a 1.5:1 molar mixture; Superdex 200 Increase 3.2/300, 4°C, 20 mM HEPES pH 8.0, 100 mM NaCl, 1 mM EDTA, 5 mM DTT; conditions: both partners purified
T1 construct: Monomer MW 49.752 kDa (AUC methods); source: LOBSTR RIL cells, purified (IMAC, TEV protease cleavage, second IMAC, gel filtration); not shown: His6, N-terminal, cleaved
T1 sequence (looked up): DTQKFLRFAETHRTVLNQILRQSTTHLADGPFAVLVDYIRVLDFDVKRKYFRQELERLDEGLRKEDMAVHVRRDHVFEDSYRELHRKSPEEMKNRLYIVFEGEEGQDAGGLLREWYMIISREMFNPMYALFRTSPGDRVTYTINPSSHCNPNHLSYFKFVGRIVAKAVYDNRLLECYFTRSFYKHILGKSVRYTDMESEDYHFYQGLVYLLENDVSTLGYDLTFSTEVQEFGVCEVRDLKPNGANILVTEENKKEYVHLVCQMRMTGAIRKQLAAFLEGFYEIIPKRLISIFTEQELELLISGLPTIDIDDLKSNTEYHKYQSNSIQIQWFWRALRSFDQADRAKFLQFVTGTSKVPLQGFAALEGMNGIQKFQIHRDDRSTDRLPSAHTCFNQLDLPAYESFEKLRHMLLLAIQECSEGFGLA

HUWE1 (3843–4374) [5] = biological target: T2, HUWE1 (3843–4374) (human, UniProt Q7Z6Z7 3843-4374); test: SEC; HUWE1 constructs at 120 μM without and with a four-fold molar excess of p14ARF (45-75); 10% DMSO; Superdex 200 Increase 3.2/300, 4°C; co-elution of the peptide shown by SDS-PAGE; conditions: both partners purified
T2 construct: source: LOBSTR RIL cells, purified (IMAC, gel filtration)
T2 sequence (looked up): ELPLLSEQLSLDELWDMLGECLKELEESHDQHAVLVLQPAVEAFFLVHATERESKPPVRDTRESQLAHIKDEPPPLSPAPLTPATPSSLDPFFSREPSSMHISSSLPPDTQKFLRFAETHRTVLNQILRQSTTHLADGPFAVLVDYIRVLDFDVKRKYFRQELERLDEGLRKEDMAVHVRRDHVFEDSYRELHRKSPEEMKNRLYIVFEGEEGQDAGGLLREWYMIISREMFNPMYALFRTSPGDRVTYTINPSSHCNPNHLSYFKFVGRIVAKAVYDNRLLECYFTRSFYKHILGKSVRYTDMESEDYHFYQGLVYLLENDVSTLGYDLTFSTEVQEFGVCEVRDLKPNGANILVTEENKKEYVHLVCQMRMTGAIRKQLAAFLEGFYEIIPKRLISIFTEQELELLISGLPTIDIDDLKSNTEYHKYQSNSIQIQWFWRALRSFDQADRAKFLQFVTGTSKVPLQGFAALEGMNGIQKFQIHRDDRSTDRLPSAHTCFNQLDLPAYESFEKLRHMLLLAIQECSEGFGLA

HUWE1 (3843–4374) [6] = biological target: T2, HUWE1 (3843–4374); test: SEC; as the SEC with p14ARF (45-75), but with p14ARF (45-64); result told only in one sentence of the methods, no data shown; conditions: both partners purified

“HUWE1 (3951–4374), crystallization construct with the N-terminal expression tag (from UniProt Q7Z6Z7 3951-4374) (domain or fragment)” gave a stoichiometry N [1] of 2.

With “HUWE1 (3951–4374), untagged (from UniProt Q7Z6Z7 3951-4374) (domain or fragment)” the Kd [2] was 2.9 µM.

B1: HUWE1 (3896–4374) (domain or fragment, human, UniProt Q7Z6Z7 3896-4374, looked up)
chain: SKPPVRDTRESQLAHIKDEPPPLSPAPLTPATPSSLDPFFSREPSSMHISSSLPPDTQKFLRFAETHRTVLNQILRQSTTHLADGPFAVLVDYIRVLDFDVKRKYFRQELERLDEGLRKEDMAVHVRRDHVFEDSYRELHRKSPEEMKNRLYIVFEGEEGQDAGGLLREWYMIISREMFNPMYALFRTSPGDRVTYTINPSSHCNPNHLSYFKFVGRIVAKAVYDNRLLECYFTRSFYKHILGKSVRYTDMESEDYHFYQGLVYLLENDVSTLGYDLTFSTEVQEFGVCEVRDLKPNGANILVTEENKKEYVHLVCQMRMTGAIRKQLAAFLEGFYEIIPKRLISIFTEQELELLISGLPTIDIDDLKSNTEYHKYQSNSIQIQWFWRALRSFDQADRAKFLQFVTGTSKVPLQGFAALEGMNGIQKFQIHRDDRSTDRLPSAHTCFNQLDLPAYESFEKLRHMLLLAIQECSEGFGLA
notes: source: LOBSTR RIL cells, purified (IMAC, gel filtration)
For B1, the “stoichiometry N” value [3] was 2.

B2: MBP-tagged activation segment of HUWE1 (residues 3843–3902) (domain or fragment, human, UniProt Q7Z6Z7 3843-3902, looked up)
chain: ELPLLSEQLSLDELWDMLGECLKELEESHDQHAVLVLQPAVEAFFLVHATERESKPPVRD
notes: pETM41: N-terminal TEV protease-cleavable MBP-tag, C-terminal 3C protease-cleavable His6-tag; source: E. coli BL21(DE3), purified (IMAC, gel filtration); not shown: MBP, N-terminal, kept; His6, C-terminal, kept
B2: binds [4].

B3: p14ARF-derived peptide (residues 45–75) (peptide, UniProt Q8N726 45-75, looked up)
peptide: LVLMLLRSQRLGQQPLPRRPGHDDGQRPSGG
notes: p14ARF, human, residues 45–75; also called p14ARF (45-75); p14ARF-peptide; source: synthetic peptide, bought: Elim Biopharm
B3: binds (HUWE1 (3843–4374) [5]).

B4: p14ARF-derived peptide (residues 45–64), unlabelled (peptide, UniProt Q8N726 45-64, looked up)
peptide: LVLMLLRSQRLGQQPLPRRP
notes: p14ARF, human, residues 45–64; also called p14ARF (45-64); source: synthetic peptide, bought: Elim Biopharm
B4: binds (HUWE1 (3843–4374) [6]).
